Kd data for 20 molecules are collected here from article PMC5322387 (2017).

B6: E2 L2S L2S didomain (protein)
chain: HMQVLLPALSPTMTMGTVQRWEKKVGEKLSEGDLLAEIETDKATIGFEVQEEGYLAKILVPEGTRDVPLGTPLCIIVEKEADISAFADYRPTEVTDLKPQVPPPTPPPVAAVPPTPQPLAPTPSAPCPATPAGPKGRVFVSPLAKKLAVEKGIDLTQVKGTGPDGRITKKDIDSFV
B8: E2 L1 L1 lipoyl domain (protein)
chain: HQKVPLPSLSPTMQAGTIARWEKKEGDKINEGDLIAEVETDKATVGFESLEECYMAKILVAEGTRDVPIGAIICITV
B18: E2 L1L2S-ML1 L1L2S tridomain (protein)
chain: HQKVPLPSLSPTMQAGTIARWEKKEGDKINEGDLIAEVETDKATVGFESLEECYMAKILVAEGTRDVPIGAIICITVGKPEDIEAFKNYTLDSSAAPTPQAAPAPTPAATASPPTPSAQAPGSSYPPHMQVLLPALSPTMTMGTVQRWEKKVGEKLSEGDLLAEIETDKATIGFEVQEEGYLAKILVPEGTRDVPLGTPLCIIVEKEADISAFADYRPTEVTDLKPQVPPPTPPPVAAVPPTPQPLAPTPSAPCPATPAGPKGRVFVSPLAKKLAVEKGIDLTQVKGTGPDGRITKKDIDSFV
B19: E2 L1L2S-ML2 L1L2S tridomain (protein)
chain: HQKVPLPSLSPTMQAGTIARWEKKEGDKINEGDLIAEVETDKATVGFESLEECYMAKILVAEGTRDVPIGAIICITVGKPEDIEAFKNYTLDSSAAPTPQAAPAPTPAATASPPTPSAQAPGSSYPPHMQVLLPALSPTMTMGTVQRWEKKVGEKLSEGDLLAEIETDKATIGFEVQEEGYLAKILVPEGTRDVPLGTPLCIIVEKEADISAFADYRPTEVTDLKPQVPPPTPPPVAAVPPTPQPLAPTPSAPCPATPAGPKGRVFVSPLAKKLAVEKGIDLTQVKGTGPDGRITKKDIDSFV
B20: E3BP L3S' L3S' didomain (protein)
chain: PIKILMPSLSPTMEEGNIVKWLKKEGEAVSAGDALCEIETDKAVVTLDASDDGILAKIVVEEGSKNIRLGSLIGLIVEEGEDWKHVEIPKDVGPPPPVSKPSEPRPSPEPQISIPVKKEHIPGTLRFRLSPAARNILEKHSLDASQGTATGPRGIFTKEDALKLV

The assay “E2 L2S L2S didomain” deals with B6. The experiment in a line: fluorescence titration.
In the assay “E2 L1 L1 lipoyl domain” the target is B8. The experiment in a line: fluorescence titration.
In assay [1] the target is B18. As to the kind of experiment: fluorescence titration.
Assay [2] deals with T1, PDK2 (Homo sapiens, UniProt Q15119). As to the kind of experiment: fluorescence titration.
In assay [3] the target is B20. The experiment in a line: fluorescence titration (quenching).
Assay [4] concerns the target B20. The experiment in a line: fluorescence titration.
Assay [5] concerns the target B19. The experiment in a line: fluorescence titration.
Assay [6] addresses T1, PDK2. The experiment in a line: fluorescence titration (quenching).

B1: PDK4 (protein)
chain: not shown
modifications: lipoylated, DANS-As-labeled L2S
Take B1: the Kd – broadly, a measure of binding affinity in units of concentration – with E2 L2S L2S didomain came to 2070 nM.

B2: PDK3 (protein)
chain: not shown
modifications: lipoylated, DANS-As-labeled L1
In turn, B2 returned an equilibrium dissociation constant (Kd) with E2 L1 L1 lipoyl domain of 620 nM.

B3: PDK3 (protein)
chain: not shown
modifications: lipoylated, DANS-As-labeled L2S
In the assay with E2 L2S L2S didomain, B3 came in with a Kd of 1210 nM.

B4: PDK4 (protein)
chain: not shown
modifications: L1 lipoylation Lys to Ala, lipoylated, DANS-As-labeled
Molecule B4 gave a dissociation constant Kd in assay [1] of 270 nM.

B5: PDK1 (protein)
chain: not shown
modifications: lipoylated, DANS-As-labeled L1
For the molecule B5, binding in the assay with E2 L1 L1 lipoyl domain was characterised by a dissociation constant (Kd) of 4430 nM. This lies in the single-digit micromolar range.
Consider B6, for which the affinity with PDK2 [2], expressed as Kd, was 1380 nM.

B7: PDK3 (protein)
chain: not shown
modifications: lipoylated, DANS-As-labeled L3S'
In the assay with E3BP L3S' L3S' didomain [3], B7 displayed an equilibrium dissociation constant (Kd) of 103 nM. In other words, the sub-micromolar range.
In turn, B8 came in with a Kd in the assay with PDK2 [2] of 910 nM.

B9: PDK4 (protein)
chain: not shown
modifications: lipoylated, DANS-As-labeled L3S'
Take B9: the Kd in the assay with E3BP L3S' L3S' didomain [4] is 5930 nM.

B10: PDK1 (protein)
chain: not shown
modifications: L1 lipoylation Lys to Ala, lipoylated, DANS-As-labeled
For the molecule B10, in assay [1], the Kd came to 2100 nM.

B11: PDK3 (protein)
chain: not shown
modifications: L2 lipoylation Lys to Ala, lipoylated, DANS-As-labeled
B11 showed a Kd in assay [5] of 396 nM.

B12: PDK3 (protein)
chain: not shown
modifications: L1 lipoylation Lys to Ala, lipoylated, DANS-As-labeled
Turning to B12, the Kd in assay [1] was 540 nM.

B13: PDK4 (protein)
chain: not shown
modifications: lipoylated, DANS-As-labeled L1
Consider B13, for which the Kd with E2 L1 L1 lipoyl domain amounted to 350 nM.

B14: PDK1 (protein)
chain: not shown
modifications: L2 lipoylation Lys to Ala, lipoylated, DANS-As-labeled
For the molecule B14, binding in assay [5] was characterised by a dissociation constant (Kd) of 3620 nM.

B15: PDK1 (protein)
chain: not shown
modifications: lipoylated, DANS-As-labeled L2S
Molecule B15 came in with a Kd with E2 L2S L2S didomain of 17100 nM.

B16: PDK4 (protein)
chain: not shown
modifications: dapoxyl-labeled L3S'
As to B16, binding with E3BP L3S' L3S' didomain [4] was characterised by a dissociation constant (Kd) of 5020 nM.

B17: PDK4 (protein)
chain: not shown
modifications: L2 lipoylation Lys to Ala, lipoylated, DANS-As-labeled
The molecule B17 showed a Kd in assay [5] of 397 nM.
In the assay with PDK2 [2], B18 returned a Kd of 890 nM.
Still for that read-out and setting: next, B19: 640 nM.
Turning to B20, the equilibrium dissociation constant (Kd) is 25 nM with PDK2 [6] and 2070 nM in the assay with PDK2 [2].
